These results are taken from publication PMC4264689, “Oligomerization, Conformational Stability and Thermal Unfolding of Harpin, HrpZPss and Its Hypersensitive Response-Inducing C-Terminal Fragment, C-214-HrpZPss” (PLoS ONE, 2014).

The data set concerns the molecule itself. Kind of data set: native gel or EMSA; native PAGE of the purified proteins in solution; multiple bands / broad smear taken as polydisperse oligomers; gel conditions not given. For orientation: A gel shift assay detects complexes by their altered migration in electrophoresis.

B1: HrpZPss (harpin HrpZ from Pseudomonas syringae pv. syringae), full length (natural protein)
chain: MQSLSLNSSSLQTPAMALVLVRPEAETTGSTSSKALQEVVVKLAEELMRNGQLDDSSPLGKLLAKSMAADGKAGGGIEDVIAALDKLIHEKLGDNFGASADSASGTGQQDLMTQVLNGLAKSMLDDLLTKQDGGTSFSEDDMPMLNKIAQFMDDNPAQFPKPDSGSWVNELKEDNFLDGDETAAFRSALDIIGQQLGNQQSDAGSLAGTGGGLGTPSSFSNNSSVMGDPLIDANTGPGDSGNTRGEAGQLIGELIDRGLQSVLAGGGLGTPVNTPQTGTSANGGQSAQDLDQLLGGLLLKGLEATLKDAGQTGTDVQSSAAQIATLLVSTLLQGTRNQAAA
notes: Harpin HrpZ of Pseudomonas syringae pv. syringae, 34.7 kDa, 341 amino acids, full length; Forms polydisperse oligomers; the number of copies is not defined; also called full length HrpZPss; native HrpZPss; source: expressed and purified as described earlier [15]
As for B1, the binding result is recorded as “binds”.

B2: C-214-HrpZPss (C-terminal fragment of HrpZPss with 214 amino acids) (domain or fragment)
chain: LTKQDGGTSFSEDDMPMLNKIAQFMDDNPAQFPKPDSGSWVNELKEDNFLDGDETAAFRSALDIIGQQLGNQQSDAGSLAGTGGGLGTPSSFSNNSSVMGDPLIDANTGPGDSGNTRGEAGQLIGELIDRGLQSVLAGGGLGTPVNTPQTGTSANGGQSAQDLDQLLGGLLLKGLEATLKDAGQTGTDVQSSAAQIATLLVSTLLQGTRNQAAA
notes: Harpin HrpZ of Pseudomonas syringae pv. syringae, C-terminal 214 residues (N-terminal 127 amino acids deleted); Cloned under the NdeI and EcoRI sites of pET 28a, which probably adds an N-terminal His6 tag with a thrombin site; Forms polydisperse oligomers; the number of copies is not defined; also called C-terminal 214 residues of HrpZPss; source: E. coli BL21 (DE3), pET 28a, purified (Ni-NTA, …)
Turning to B2, the binding result is recorded as “binds”.
